Residue numbers refer to the chain shown, from its start.
Columns and labels:
[1] = target: SLPI binding sites on U937 cells (human monocyte cell line; intact cells, PMA-induced cells or plasma membranes) (human); test: competition with 125I-SLPI, intact U937 cells, competitor at 84 nM
[2] = target: SLPI binding sites on U937 cells (human monocyte cell line; intact cells, PMA-induced cells or plasma membranes) (human); test: competition with 125I-SLPI, U937 plasma membranes, competitor at 0.800 nM
[3] = target: SLPI binding sites on U937 cells (human monocyte cell line; intact cells, PMA-induced cells or plasma membranes) (human); test: competition with 125I-SLPI, U937 plasma membranes, competitor at 2750 nM
[4] = target: SLPI binding sites on U937 cells (human monocyte cell line; intact cells, PMA-induced cells or plasma membranes) (human); test: competition with 125I-SLPI, U937 plasma membranes, Kd by Cheng-Prusoff
[5] = target: SLPI binding sites on HuT78 cells (human T cell line) (human); test: competition with 125I-SLPI, intact HuT78 cells, Kd by Cheng-Prusoff
[6] = target: SLPI binding sites on U937 cells (human monocyte cell line; intact cells, PMA-induced cells or plasma membranes) (human); test: competition with 125I-SLPI, intact U937 cells, competitor at 8.2 nM
[7] = target: SLPI binding sites on U937 cells (human monocyte cell line; intact cells, PMA-induced cells or plasma membranes) (human); test: competition with 125I-SLPI, U937 plasma membranes, competitor at 0 nM
[8] = target: SLPI binding sites on U937 cells (human monocyte cell line; intact cells, PMA-induced cells or plasma membranes) (human); test: competition with 125I-SLPI, U937 plasma membranes, competitor at 2.56 nM
[9] = target: SLPI binding sites on HuT78 cells (human T cell line) (human); test: competition with 125I-SLPI, intact HuT78 cells, competitor at 0 nM
[10] = target: SLPI binding sites on U937 cells (human monocyte cell line; intact cells, PMA-induced cells or plasma membranes) (human); test: competition with 125I-SLPI, intact U937 cells, competitor at 2750 nM
[11] = target: SLPI binding sites on U937 cells (human monocyte cell line; intact cells, PMA-induced cells or plasma membranes) (human); test: competition with 125I-SLPI, U937 plasma membranes, competitor at 8.20 nM
[12] = target: SLPI binding sites on HuT78 cells (human T cell line) (human); test: competition with 125I-SLPI, intact HuT78 cells, competitor at 84 nM
[13] = target: SLPI binding sites on HuT78 cells (human T cell line) (human); test: competition with 125I-SLPI, intact HuT78 cells, competitor at 0.80 nM
[14] = target: SLPI binding sites on U937 cells (human monocyte cell line; intact cells, PMA-induced cells or plasma membranes) (human); test: competition with 125I-SLPI, U937 plasma membranes, competitor at 268 nM
[15] = target: SLPI binding sites on HuT78 cells (human T cell line) (human); test: competition with 125I-SLPI, intact HuT78 cells, competitor at 2.6 nM
[16] = target: SLPI binding sites on U937 cells (human monocyte cell line; intact cells, PMA-induced cells or plasma membranes) (human); test: competition with 125I-SLPI, intact U937 cells, competitor at 0 nM
[17] = target: SLPI binding sites on U937 cells (human monocyte cell line; intact cells, PMA-induced cells or plasma membranes) (human); test: competition with 125I-SLPI, intact U937 cells, competitor at 0.80 nM
[18] = target: SLPI binding sites on U937 cells (human monocyte cell line; intact cells, PMA-induced cells or plasma membranes) (human); test: competition with 125I-SLPI, U937 plasma membranes, competitor at 83.9 nM
[19] = target: SLPI binding sites on HuT78 cells (human T cell line) (human); test: competition with 125I-SLPI, intact HuT78 cells, competitor at 8.2 nM
[20] = target: T1, human neutrophil elastase (human, UniProt P08246 30-247, limits assumed); test: BIAcore, immobilized Phe72 mutein, monoS fractions of CHAPS-solubilized U937 membranes; identity by comigration
T1 construct: also called HNE
T1 sequence (looked up): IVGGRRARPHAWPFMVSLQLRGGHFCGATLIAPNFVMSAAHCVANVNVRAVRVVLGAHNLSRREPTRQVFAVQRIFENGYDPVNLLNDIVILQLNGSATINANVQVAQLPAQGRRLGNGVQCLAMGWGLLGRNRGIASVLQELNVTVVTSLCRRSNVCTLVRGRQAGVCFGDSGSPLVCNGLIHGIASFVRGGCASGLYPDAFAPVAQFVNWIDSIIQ
Text: The BIAcore analytical system is available from Pharmacia Biosensor AB, Uppsala, Sweden.

[21] = target: SLPI binding sites on U937 cells (human monocyte cell line; intact cells, PMA-induced cells or plasma membranes) (human); test: competition with 125I-SLPI, intact U937 cells, Kd by Cheng-Prusoff
[22] = target: SLPI binding sites on HuT78 cells (human T cell line) (human); test: competition with 125I-SLPI, intact HuT78 cells, competitor at 2750 nM
[23] = target: SLPI binding sites on U937 cells (human monocyte cell line; intact cells, PMA-induced cells or plasma membranes) (human); test: competition with 125I-SLPI, intact U937 cells, competitor at 2.6 nM
[24] = target: the molecule itself; test: DSS crosslinking of 2 µM 125I-SLPI in the absence of virus, reducing SDS-PAGE, phosphor imager
Experimental: Incubation was stopped by addition of Laemmli sample buffer. […] The volume of the parallel sample that was loaded on the gel was 5 times larger than the volume of the virus-containing samples.

B1: SLPI mutein Phe 72 (other, human, UniProt P03973 26-132, looked up)
chain: SGKSFKAGVCPPKKSAQCLRYKKPECQSDWQCPGKKRCCPDTCGIKCLDPVDTPNPTRRKPGKCPVTYGQCFMLNPPNFCEMDGQCKRDLKCCMGMCGKSCVSPVKA
notes: mature; also called Phe72 mutein
**Q.** For B1, which % *SLPI BOUND [1] is on record?
**A.** 4%

**Q.** And the CPM *SLPI BOUND [2]?
**A.** 12400 cpm

**Q.** And the CPM *SLPI BOUND [3]?
**A.** 1540 cpm

**Q.** And the Kd [4]?
**A.** 1 nM

**Q.** What about the Kd [5] of the same binder?
**A.** 3 nM

**Q.** And the % *SLPI BOUND [6]?
**A.** 22%

**Q.** What about the CPM *SLPI BOUND [7] of the same binder?
**A.** 18700 cpm

**Q.** What about the CPM *SLPI BOUND [8] of the same binder?
**A.** 8920 cpm

**Q.** And the % *SLPI BOUND [9]?
**A.** 100%

**Q.** And the % *SLPI BOUND [10]?
**A.** 5%

**Q.** And the CPM *SLPI BOUND [11]?
**A.** 4260 cpm

**Q.** And the % *SLPI BOUND [12]?
**A.** 36%

**Q.** What about the % *SLPI BOUND [13] of the same binder?
**A.** 69%

**Q.** And the CPM *SLPI BOUND [14]?
**A.** 2580 cpm

**Q.** What about the % *SLPI BOUND [15] of the same binder?
**A.** 90%

**Q.** What about the % *SLPI BOUND [16] of the same binder?
**A.** 94%

**Q.** And the % *SLPI BOUND [17]?
**A.** 77%

**Q.** And the CPM *SLPI BOUND [18]?
**A.** 1660 cpm

**Q.** And the % *SLPI BOUND [19]?
**A.** 57%

**Q.** Does B1 bind [20]?
**A.** binds

**Q.** What about the Kd [21] of the same binder?
**A.** 2 nM

**Q.** What about the % *SLPI BOUND [22] of the same binder?
**A.** 1%

**Q.** What about the % *SLPI BOUND [23] of the same binder?
**A.** 51%

B2: serine leukocyte protease inhibitor (SLPI) (other, human, UniProt P03973 26-132, looked up)
chain: B1 chain with F72L
modifications: the tracer *SLPI carried I-125 (Bolton Hunter reagent in Examples 12-16, Iodogen in Example 19); positions not given
notes: mature; labelled and cold SLPI are treated as one molecule; also called *SLPI (radiolabelled); cold SLPI
**Q.** Does B2 bind [24]?
**A.** binds

Source: US6869925 (Amgen, dated 2005)
